Measurements taken from the DeepSol protein solubility set.

Experiment: soluble on expression in E. coli; label from the status in PepcDB or PDB records

Row | Sequence | soluble on expression in E. coli
1 | MLFGQSVFQSVVERLKQEKEEEGTEPSPPAGHRIAGFSSGFVVDTHIEAPQPANGNLDAYLAFLADPAPPPESQTEPEPEPMPAHLEKTALADVSAELAIQETDTVATLAEKRRAFARLNHPDRVKPQFRHNATLRMTAANLLIDQALRMLRTREHFR | not soluble
2 | MSDDKKSLINIELLPKELITNLFGPATKSIGEGLGGIVNYVVGPLRKLNVVSEKSYIDFVEKINSKTDSIPVDNRDDSKLGFALKTMEDARYQLEDEDMREYFSNLLAGLVDNRKNQDSSPRFSIILSELTTIDANLLKKLYKLSITPTIKVRVQAPNGNGIDYIENLILTQKGIVENNFSDLSPSLQTLRSYGLIDIRPSIELTQKKHTKIYDDFENSTYFKTLKYNLNSFFANSSFFKDTGFSIISIRGSIHVTDLGFLFCSKIFSSEEE | not soluble
3 | MGSSHHHHHHSSGLVPRGSHMSVRSLPAALRACARLQPHDPAFTFMDYEQDWDGVAITLTWSQLYRRTLNVAQELSRCGSTGDRVVISAPQGLEYVVAFLGALQAGRIAVPLSVPQGGVTDERSDSVLSDSSPVAILTTSSAVDDVVQHVARRPGESPPSIIEVDLLDLDAPNGYTFKEDEYPSTAYLQYTSGSTRTPAGVVMSHQNVRVNFEQLMSGYFADTDGIPPPNSALVSWLPFYHDMGLVIGICAPILGGYPAVLTSPVSFLQRPARWMHLMASDFHAFSAAPNFAFELAARRTTDDDMAGRDLGNILTILSGSERVQAATIKRFADRFARFNLQERVIRPSYGLAEATVYVATSKPGQPPETVDFDTESLSAGHAKPCAGGGATSLISYMLPRSPIVRIVDSDTCIECPDGTVGEIWVHGDNVANGYWQKPDESERTFGGKIVTPSPGTPEGPWLRTGDSGFVTDGKMFIIGR | soluble
4 | MRILKIYENKGVYKVVIGEPFPPIEFPLEQKISSNKSLSELGLTIVQQGNKVIVEKSLDLKEHIIGLGEKAFELDRKRKRYVMYNVDAGAYKKYQDPLYVSIPLFISVKDGVATGYFFNSASKVIFDVGLEEYDKVIVTIPEDSVEFYVIEGPRIEDVLEKYTELTGKPFLPPMWAFGYMISRYSYYPQDKVVELVDIMQKEGFRVAGVFLDIHYMDSYKLFTWHPYRFPEPKKLIDELHKRNVKLITIVDHGIRVDQNYSPFLSGMGKFCEIESGELFVGKMWPGTTVYPDFFREDTREWWAGLISEWLSQGVDGIWLDMNEPTDFSRAIEIRDVLSSLPVQFRDDRLVTTFPDNVVHYLRGKRVKHEKVRNAYPLYEAMATFKGFRTSHRNEIFILSRAGYAGIQRYAFIWTGDNTPSWDDLKLQLQLVLGLSISGVPFVGCDIGGFQGRNFAEIDNSMDLLVKYYALALFFPFYRSHKATDGIDTEPVFLPDYYKEKVKEIVELRYKFLPYIYSLALEASEKGHPVIRPLFYEFQDDDDMYRIEDEYMVGKYLLYAPIVSKEESRLVTLPRGKWYNYWNGEIINGKSVVKSTHELPIYLREGSIIPLEGDELIVYGETSFKRYDNAEITSSSNEIKFSREIYVSKLTITSEKPVSKIIVDDSKEIQVEKTMQNTYVAKINQKIRGKINLE | soluble
5 | MKNTEIRKNIFPVGFYDDIHPDFSVNFQMNRCYTMTNDDVMLKEMREISPSIHNYEEFIEKFLELYNKALNEGHKLRAAYYLRTAEFYMTADHPQKQNYRKQFISLMQEYFNISDEQPYKVPYENGFLPAYRFTSEAPKGTIVMFGGFDSYVEEMFKMALFLKEAGYDVVFFDGPGQGSALEDYKIPMTHEWEKPVKSILDYFELDDVTLLGISLGGYLTVRAAAFEKRVHRVIADDILSNFYEVVLNTLPSQLKEKVNSLMSDGNEQEVNILFKDLMKKSLMVEWAINQGMHITGSKTPYEFLNKILLYNTSKISEKLEQDVLLMAAQEDHYIPLNQFFDQSKSLINVRSLTTRMFTRKETAQNHCQSGNLGLAFEVIANWIEQIQK | soluble
6 | GPGSMLARGCVLRWHAVSARRVLGLHDGQSYTPADIKKAFRERALTAHPDAGGDADGFRQLQRAYEVLLHEHSVGKKGSEAAAASDDSEGGSGFYAHPHAEWCNDMRSQRAYWRDMYTEMNMNPNSCGSHRHASNTHYQARQHYRTYGEGLGEDFQKEFKSSSFAGGGQRGSQMNFSTWYFYRPYYSNYRNPFGTGFTPEEIRRAEQEQRRGFARAVARHACLWSGLAFVVYLHERNNRVWRAVEARDKGYKDPEYWEQLRKDEEEARRRSRAPLRLEQHWLDAPLMRSLMDLTEGGHSGGCGKNGQDAEDNISGAARAGTAWATQQARMAQERRRQAMSSTRGMRRGASGDVGGPRVVSYQGRPFTPNGVRGMRNTAPKTPKTYADDVTYEMDDDDDV | not soluble
7 | MRGSHHHHHHGSMSQPDATPFDYILSGGTVIDGTNAPGRLADVGVRGDRIAAVGDLSASSARRRIDVAGKVVSPGFIDSHTHDDNYLLKHRDMTPKISQGVTTVVTGNCGISLAPLAHANPPAPLDLLDEGGSFRFARFSDYLEALRAAPPAVNAACMVGHSTLRAAVMPDLRREATADEIQAMQALADDALASGAIGISTGAFYPPAAHASTEEIIEVCRPLITHGGVYATHMRDEGEHIVQALEETFRIGRELDVPVVISHHKVMGKLNFGRSKETLALIEAAMASQDVSLDAYPYVAGSTMLKQDRVLLAGRTLITWCKPYPELSGRDLEEIAAERGKSKYDVVPELQPAGAIYFMMDEPDVQRILAFGPTMIGSDGLPHDERPHPRLWGTFPRVLGHYSRDLGLFPLETAVWKMTGLTAAKFGLAERGQVQPGYYADLVVFDPATVADSATFEHPTERAAGIHSVYVNGAAVWEDQSFTGQHAGRVLNRAGA | soluble
8 | QKFIARNRAPRVQIEYDVEIYGAERKIQLPFVMGVLADLAGKSNTPQPEVGERKFLDVDIDNFDERMKSVAPRAAFQVANTLTGAGHLNVDITFESIDDFSPATVARKVGALNEMLEARTQLANLLTYMDGKTGAEELIGQVLQNPALLGALAAAPKPA | not soluble
9 | SSSESEKDKERLIQAAKLFFFHIRDLVSFINRFVELFNLTMKTQILPMNLNEESCIKDFFEQMIRNFKEMQLMVDGKHKQMQKEPLCSKVLTAMTSAVEKCATIAPHHTAEDMLRNIQTSGAALVLKTSHVLVNLETSLSLLMQFPIMGLRLSDLYREETKEQSDATSDATTSEKNKSPECPKATTEETLRKLQDVLSPENAHTPVEAAADELEQFVKSMEITLQVLQKSIKTMEGDIFVLTQVQGK | soluble
10 | MMGCMMIYNPKQLANHLKLIRTKHNLTQTELAKKVGVKQSTLSSFENHPETTQLQTLFKILHALEVHCIIQEQVPASHEDNLDDEAW | not soluble
11 | MRFAVLGSGSQGNGTLIASGDTFILVDCGFSLRETERRLALLGVSAAQLSAVLVTHEHADHVHGVGLLSRRYNVPVYLSQGTLRGMRKPVEVAGFLACGQSLHIGSLEVTAARVEHDAYEPLQYVVSDGKRRFGMLTDLGSYDALLLERYQGLDALLIEANHCRDLLARGHYPAFLKQRVGGMQGHLNNHQAARLVHELGWNNLQHLVLAHLSSKNNLPHLARQCFVDTLGCDPDWLQVANQEHGLDWREIALEHHHHHH | soluble
12 | MPRFAANLSMMFTEVPFIERFAAARKAGFDAVEFLFPYNYSTLQIQKQLEQNHLTLALFNTAPGDINAGEWGLSALPGREHEAHADIDLALEYALALNCEQVHVMAGVVPAGEDAERYRAVFIDNIRYAADRFAPHGKRILVEALSPGVKPHYLFSSQYQALAIVEEVARDNVFIQLDTFHAQKVDGNLTHLIRDYAGKYAHVQIAGLPDRHEPDDGEINYPWLFRLFDEVGYQGWIGCEYKPRGLTEEGLGWFDAWRGS | soluble
13 | MPSLSKEAALVHDALVARGLETPLRPPMDELDNETRKSLIAGHMTEIMQLLNLDLSDDSLMETPHRIAKMYVDEIFAGLDYANFPKITLIENKMKVDEMVTVRDITLTSTCEHHFVTIDGKATVAYIPKDSVIGLSKINRIVQFFAQRPQVQERLTQQILTALQTLLGTNNVAVSIDAVHYCVKARGIRDATSATTTTSLGGLFKSSQNTRQEFLRAVRHHP | not soluble
14 | MGSDKIHHHHHHMNIEKTRFCINRKIAPGLSIEAFFRLVKRLEFNKVELRNDMPSGSVTDDLNYNQVRNLAEKYGLEIVTINAVYPFNQLTEEVVKKTEGLLRDAQGVGARALVLCPLNDGTIVPPEVTVEAIKRLSDLFARYDIQGLVEPLGFRVSSLRSAVWAQQLIREAGSPFKVLLDTFHHHLYEEAEKEFASRIDISAIGLVHLSGVEDTRPTEALADEQRIMLSEKDVMQNYQQVQRLENMGYRGIYAFEPFSSQLASWSEAEIEEQINRSVSLLLQ | not soluble
